Source: patent US20250042995A1 (AKESO BIOPHARMA, published 2025)
Numbering of substitutions follows the chain as printed. Each block holds one binder with its values, some of them ahead of it.

Tests used:
human LAG3-mFc [1] = molecular target: T1, human LAG3-mFc (human, UniProt P18627 23-450); assay: competitive flow cytometry: antibody titrated against 3 nM LAG3-mFc binding to MHC II on Raji cells
T1 construct: also called antigen human LAG3-mFc; not shown: mFc: Fc protein fragment of mouse IgG
T1 sequence (looked up): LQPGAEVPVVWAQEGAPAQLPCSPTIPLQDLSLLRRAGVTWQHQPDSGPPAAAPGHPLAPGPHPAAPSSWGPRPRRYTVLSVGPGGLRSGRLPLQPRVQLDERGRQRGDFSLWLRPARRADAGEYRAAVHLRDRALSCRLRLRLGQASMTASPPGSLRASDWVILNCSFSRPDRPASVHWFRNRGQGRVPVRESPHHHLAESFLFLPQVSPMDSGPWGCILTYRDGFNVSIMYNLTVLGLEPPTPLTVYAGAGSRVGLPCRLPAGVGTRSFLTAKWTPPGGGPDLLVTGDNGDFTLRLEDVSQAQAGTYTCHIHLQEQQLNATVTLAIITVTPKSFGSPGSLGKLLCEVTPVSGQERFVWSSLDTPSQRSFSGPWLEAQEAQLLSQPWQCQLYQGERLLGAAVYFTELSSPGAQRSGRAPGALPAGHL
Procedure: Raji cells (medium: 1640+10% FBS) (Cell Resource Center, Shanghai Institutes for Biological Sciences, Chinese Academy of Sciences, Cat. No. TCHu 44) were added into EP tubes at 300,000 cells per sample. 1000 μL of 1% PBSA (PBS containing 1% BSA) was added. The mixture was centrifuged at 600×g for 5 min, and the supernatant was discarded. […] The mixture was mixed well and pre-incubated on ice for 30 min. 100 μL of the pre-incubated mixture of antibody and protein was added to the sample. The mixture was mixed well and incubated on ice in the dark for 1 h; 200 μL of 1% PBSA was added, and the mixture was centrifuged at 600×g for 5 min, followed by removal of the supernatant, and then washed twice; 100 μL of an APC anti mouse antibody (purchased from Biolegend, Cat. No. 405308) (diluted at a 1:400 ratio) was added, and the mixture was mixed well and incubated on ice in the dark for 40 min; 200 μL of 1% PBSA was added, and the mixture was centrifuged at 600×g for 5 min, followed by removal of the supernatant; 200 μL of Washing Buffer was added into each tube to resuspend the cells, and then the suspension was transferred to a sample loading tube for testing on a flow cytometer.

[2] = molecular target: T2, human LAG3 (full length) expressed on cells (human, UniProt P18627 23-525); assay: flow cytometry on 293T-LAG3 cells
T2 construct: whole, on cells; also called huLAG3FL
T2 sequence (looked up): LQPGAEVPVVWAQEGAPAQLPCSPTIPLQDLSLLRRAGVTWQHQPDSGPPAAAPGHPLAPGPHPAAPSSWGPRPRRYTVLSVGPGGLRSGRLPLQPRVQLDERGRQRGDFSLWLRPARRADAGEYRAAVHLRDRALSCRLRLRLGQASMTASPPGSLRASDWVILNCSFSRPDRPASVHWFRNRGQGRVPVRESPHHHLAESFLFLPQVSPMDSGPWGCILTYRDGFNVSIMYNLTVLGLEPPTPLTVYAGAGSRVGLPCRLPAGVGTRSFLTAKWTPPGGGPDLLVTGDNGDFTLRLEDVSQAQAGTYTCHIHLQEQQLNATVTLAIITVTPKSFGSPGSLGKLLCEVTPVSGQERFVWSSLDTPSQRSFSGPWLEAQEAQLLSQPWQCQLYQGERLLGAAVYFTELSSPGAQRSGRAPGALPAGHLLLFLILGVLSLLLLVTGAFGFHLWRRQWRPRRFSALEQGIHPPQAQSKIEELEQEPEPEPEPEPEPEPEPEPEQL
Procedure: After centrifugation and washing several times with 1% PBSA, 100 μL of FITC goat anti-human IgG (purchased from Jackson, Cat. No. 109-095-098) (diluted at a 1:500 ratio) was added into each tube, and the mixture was incubated on ice in the dark for 40 min. After washing once with 1% PBSA, 200 μL of 1% PBSA was added to resuspend the cells. Fluorescence signals were detected with FITC channel on a flow cytometer.

human LAG3-mFc [3] = molecular target: T1, human LAG3-mFc; assay: ELISA, human LAG3-mFc coated 2 ug/mL
Procedure: Then the ELISA plate coated with the antigen was washed once with PBST and then blocked with a PBS solution containing 1% BSA as a blocking solution at 37° C. for 2 h. After blocking, the ELISA plate was washed 3 times with PBST. The ELISA plate containing the test antibodies was incubated at 37° C. for 30 min and then washed 3 times with PBST. After washing, a working solution of an HRP-labeled goat anti-human IgG (H+L) (Jackson, Cat. No. 109-035-088) secondary antibody diluted at a ratio of 1:5000 was added, and then the plate was incubated at 37° C. for 30 min. After incubation, the plate was washed 4 times with PBST, TMB (Neogen, 308177) was added for chromogenesis in the dark for 5 min, and then a stop solution was added to terminate the chromogenic reaction. The ELISA plate was put into an ELISA plate reader immediately, and the OD value of each well in the ELISA plate was read at 450 nm. The data were analyzed and processed by SoftMax Pro 6.2.1.

EC50 (human LAG3-mFc [1]): 1.32 nM
EC50 [2]: 4.81 nM
EC50 (human LAG3-mFc [3]): 0.142 nM
B1: H7L9(hG4WT) (antibody, human IgG4 S228P, kappa, V domains shown)
VH: QVQLQQWGAGLLKPSETLSLTCAVYGGSISDYYWNWIRQPPGKGLEWIGEINHRGTTNSNPSLKSRVTLSLDTSKNQFSLKLRSVTAADTAVYYCAFGYSDYEYDWFDPWGQGTLVTVSS
VL: EIVLTQSPATLSLSPGERATLSCRASQTISSYLAWYQQKPGQAPRLLIYDGSNRATGIPARFSGSGSGTDFTLTISSLEPEDFAVYYCQQRSNWPLTFGQGTNLEIKR
notes: Humanized anti-LAG3 IgG4 (Ig gamma-4 chain C region) with human kappa constant region

EC50 (human LAG3-mFc [1]): 1.27 nM
EC50 [2]: 4.17 nM
EC50 (human LAG3-mFc [3]): 0.157 nM
B2: H7L10(hG4WT) (antibody, human IgG4 S228P, kappa, V domains shown)
VH: B1 VH
VL: B1 VL with T28S, L96I
notes: as for B1
